A short description of the series: yeast display, Sf9 membrane polyspecificity reagent, FACS + sequencing; frameworks hold sequencing errors. Put shortly: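 After 36–48 hours of galactose induction, yeast (Saccharomyces cerevisiae BJ5465) displaying a synthetic nanobody library were stained at 4 °C for 1 hour with 10% biotinylated, detergent-solubilized Sf9 membrane reagent. Streptavidin microbeads enriched the stained cells before FACS sorting into low and high (top ~1%) gates on anti-HA and streptavidin fluorescence. Each clone's polyreactivity label reflects its gate of origin.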
For the sequence “QVQLVESGGGLVQAGGSLRLSCPASGIIFKGYAMGWYRQAPGKERELVAAISQSGGSTYYADSVKGRFTISRDNAKNTVYLQMNSLKPEDTAVYYCNARYSRVVPRYYYWGQGTQVTVSS”, the “polyreactivity (PSR sort gate)” value is “high polyreactivity”.
The entry for “QVQLVESGGGLVQAGGSLRLSCPASGIIFNDYAMGWYRQAPGKEREMVAAITSNGDNTYYADSVKGRFTISRDNAKNTVYLQMNSLKPEDTAVYYCAVDGSFAADFDNYLEEYGYWGQGTQVTVSS” is “low polyreactivity”.
For the sequence “QVQLVESGGGLVQAGGSLRLSCPASGIIFNLYAMGWYRQAPGKERELVAAISWSGGSTDYADSVKGRFTISRDNAKNTVYLQMNSLKPEDTAVYYCATSFLYPYFDEDDYWGQGTQVTVSS”, the “polyreactivity (PSR sort gate)” value is recorded as “high polyreactivity”.
For “QVQLVESGGGLVQAGGSLRLSCPASGITFGSYAMGWYRQAPGKERELVAAITSGGGTNYADSEKGRFTISRDNAKNTVYLHMNSLKPEDTAGYYCAARYYYLGTRYGYWGQGTQVTVSS”, the “polyreactivity (PSR sort gate)” value is “low polyreactivity”.
The entry for “QVQLVESGGGLVQAGGSLRLSCPASGITVTAYAMGWYRQAPGKERELVATINSTGITNYADSVKGRFTISRDNAKNTVYLQMNSLKPEDTAVYYCAADLMDSSSYDGMDYWGQGTQVTVSS” is “low polyreactivity”; for “QVQLVESGGGLVQAGGSLRLSCPASGLIIGVYAMGWYRQEPGKERELVAAITDGGSTYYADSVKGRFTISRDNAKNTVYLQMNSLKPEDTAVYYCNAEFRSSDYDYWGQGTQVTVSS” it is “low polyreactivity”.
The entry for “QVQLVESGGGLVQAGGSLRLSCPASGLNFTSYAMGWYRQAPGKERELVAAITWSGSSTYYADSVKGRFTISRDNAKNTVYLQMNSLKPEDTAVYYCAAYRYGRIYRQYAYDYWGQGTQVTVSS” is “high polyreactivity”; for “QVQLVESGGGLVQAGGSLRLSCPASGNIFGNNAMGWYRQAPGKERELVAAIDGSGGSTYYADSVKGRFTISRDKAKNTVYLQMNSLKPEDTAVYYCAKTAVIWRTWRTVPSPGYHFGYWGQGTQVTVSS” it is “low polyreactivity”.
Regarding “QVQLVESGGGLVQAGGSLRLSCPASGRIFLGNLMGWYRQAPGKERELVAAISWSGGSTYADSVKGRFTISRDNAKNTVYFQMNSLKPEDTAVYYCAKDEGTFYNSYDYWGQGTQVTVSS”, the “polyreactivity (PSR sort gate)” value is recorded as “low polyreactivity”.
As for “QVQLVESGGGLVQAGGSLRLSCPASGRIFPRYAMGWYRPAPGKERELVARITRRGGITYYADSVKGRFTISRDNAQNTVYLEMNSLKPEDTAVYYCNVDYYRGGDFSYGYDYWGQGTQLTVSS”, the “polyreactivity (PSR sort gate)” value is “high polyreactivity”.
With “QVQLVESGGGLVQAGGSLRLSCPASGRIFYYNAIGWYRQAPGKERELVATITRAGGTYYADSVKGRFTISRDNAKNTVYLQMNSLKPEDTAVYYCAKRHPIVDDYKGDYWGQGTQVTVSS” the entry was “low polyreactivity”.
With “QVQLVESGGGLVQAGGSLRLSCPASGRIIAWYAMGWYRQAPGKERELVAVITSSGGSTYYADSVKGRFTISRDNAKNTVYFMMNRLKPEDTAVYYCARKVVSPAWSHDFYYWGLGTQVTVSS” the entry was “low polyreactivity”.
The entry for “QVQLVESGGGLVQAGGSLRLSCPASGRTFPGYSKGWYRQAPGKERELVATITGNGGSTYYADSVKGRFTISRENAKNTVYLQMNSLKPEDTAVYYCAGGRRRPYVRAYRGTDYWVQGTQVTVSS” is “low polyreactivity”; for “QVQLVESGGGLVQAGGSLRLSCPASGRTFYKNAMGWYRQAPGKERELVAAITSGGSTNYADSVKGRFTISRDNAKNTVYLQMNSLKSEDTAVYYCAAQQFPYYRSRYSYINKYDYWGQGTQVTVSS” it is “high polyreactivity”.
As for “QVQLVESGGGLVQAGGSLRLSCPASGSIFDPYAMGWYRQAPGKERELVAAITASGSSTYYADSVKGRFTISRDNAKNTVYLQMNSLKPEDTAVYYCAADRAKWEYLLSWLGYDYWGQGTQVTVSS”, the “polyreactivity (PSR sort gate)” value was “low polyreactivity”.
The entry for “QVQLVESGGGLVQAGGSLRLSCPASGSIFFYAMGWYRQAPGKERELVADITYTGGSKYADSVKGRFTISRDNAKNTVYLQMNSLKPEDTAFYYCANLDGGLFDYWGQGTQVTVSS” is “low polyreactivity”.
As for “QVQLVESGGGLVQAGGSLRLSCPASGSIFGSYAMGWYRQAPGKERELVASITRVDSTNYADSVKGRFTISRDNAKNTVYLQMNRLKPEDTAVYYCNAGKTIDYRDGVGYDHWGQGTQVTVSS”, the “polyreactivity (PSR sort gate)” value was “low polyreactivity”.
With “QVQLVESGGGLVQAGGSLRLSCPASGSILYSYAMGWYRQAHGKERELVAAITGDGASTNYADSVKGRFTISRDNAKNTVYFQMNSLKPEDTAVYYCNAGRESDDVYEGSQRIGQFDYWGQGTLVTVSS” the entry was “low polyreactivity”.
With “QVQLVESGGGLVQAGGSLRLSCPASGSISYFNAMGGYRQAPGKERELVAAITSCGSTYYADSVKGRFTISRDNAKNSVYLQMNSLKPEDTAVYYCAADDSWFYYGYGYWGQGTQVTVSS” the entry was “low polyreactivity”; with “QVQLVESGGGLVQAGGSLRLSCPASGSNLSRYAMGWYRQAPGKERELVAGITWRGGSTYYADSVKGRFTISRDNAKNTVYLQMNSLKPEDTAVYYCARRYGGYKWVRAYYYWGQGTQVTLSS”, “high polyreactivity”.
In the case of “QVQLVESGGGLVQAGGSLRLSCPSSGIIFYYYAMGWYRQAPGKERELVAAINFSVGGTYYADSVKGRFTISRDNAKNTVYLQMNSEKPEDTEVYYCAKDIVIPATYVEYDYWGQGTQVTVSS”, the “polyreactivity (PSR sort gate)” value was “low polyreactivity”.
With “QVQLVESGGGLVQAGGSLRLSCSASGFIFDVYAMGWYRPAPGKERELVAAISRSGGSTYYADSVKGRFTISRDNAKNTVYLQMNSLKPEDTAVYYCATVLLNNVDYDYWGQGTQVTVSS” the entry was “low polyreactivity”; with “QVQLVESGGGLVQAGGSLRLSCSASGFIFITVNAMGWYRQAPGKEREFVAAITRSGTGTYYADSVKGRFTISRDHAKNTVYLQMNSLKPEDTAVYYCAADATSTGAYDYWGQGTQVTVSS”, “low polyreactivity”.
On to “QVQLVESGGGLVQAGGSLRLSCSASGFIFVDYAMGWYRQSPGKERELVAAISRSGGSTYYADSVKGRFTISRDNAKNTVYLQMNSLKPEDTAVYYCAAKYPFYAKNGYWGQGTQVTVSS”, for which the “polyreactivity (PSR sort gate)” value is listed as “high polyreactivity”.
Consider “QVQLVESGGGLVQAGGSLRLSCSASGFILLAYAMGWYRQAHGKERELVAAITSGGSTHYADSVKGRFTISRDNAKNTVYLQMNSLKPEDTAVYYCANDTVFRYSGNTYGYWGQGTQVTVSS”, for which the “polyreactivity (PSR sort gate)” value is reported as “low polyreactivity”.
The entry for “QVQLVESGGGLVQAGGSLRLSCSASGFTFDSYAMGWYRQAPGKERELVAAITSDGSTYYADSVKGRFTISRDNAKNTVYLQMNSLKPEDTAVYYCAADGRYFRAVFRLYDYWGQGTQVTVSS” is “low polyreactivity”; for “QVQLVESGGGLVQAGGSLRLSCSASGFTYDYYAMGWYRQAPGKERELVATISVSAVSTSYADSVKGRFTISRDNAKNTVYLQMNSLKPEDTAVYYCAASRGPYYYHYSGSLKSFDYWGQGTQVTVSS” it is “low polyreactivity”.
With “QVQLVESGGGLVQAGGSLRLSCSASGGIFWVYAMGWYRQAPGKERELVAAISNSDTSTSYADSVKGRFTISRDNAKNTVYLQMNSLKPEDTAVYYCNADSPSLSGDYWGQGTQVTVSS” the entry was “low polyreactivity”; with “QVQLVESGGGLVQAGGSLRLSCSASGIIFDVNALGWYRQSPGKERELVADITYSVGSTSYADSVKGRFTISRDNAKNTVYLQMNSLKPEDTAVYYCAAVYSHSGGEGIKYDYWGQGTQVTVSS”, “low polyreactivity”; with “QVQLVESGGGLVQAGGSLRLSCSASGIIFRGYAMGWYRQAPRKERELVAGITSGGDTNYADSVKGRFTISRDNAKNTVYLQMNSLKPEETAVYYCNVALQAKGMGYWGQGTQVTVSS”, “low polyreactivity”.
Regarding “QVQLVESGGGLVQAGGSLRLSCSASGIIFSEYAMVWYRQAPGKERELVAAISKSSGSTRYADSVKGRFTISRDNAKNTVYLQMNSLKPEVTAVYYCAAVYRGVVVYGYWGQGTQVTVSS”, the “polyreactivity (PSR sort gate)” value is “high polyreactivity”.
Take “QVQLVESGGGLVQAGGSLRLSCSASGITSKNYAMGCYRQAPGKERELVAVISGRGGSTYYADSVKGRFTISRDNAKNTVYLQMNSLKPVDTAVYYCAAYGNQRRGAYPYKYDYWGQGTQVTVSS”: the “polyreactivity (PSR sort gate)” value is “high polyreactivity”.
With “QVQLVESGGGLVQAGGSLRLSCSASGRFYVINYMGRYRQAPGKERELVAANTWGSSTYADSEKGRFTISRDNAKITVYFQMNSLKQEDTAVYYCSRDVYPSTWEYDYWGQGTQVTVSS”, the “polyreactivity (PSR sort gate)” value was “low polyreactivity”.
As to “QVQLVESGGGLVQAGGSLRLSCSASGRIFQYYAMGWYIKAPGKERELVAAISGRGTSTYYADSVKGRFTISRDNAKNTVYLEMNSLKQEDTAVYYCNADINYKSYFIHTFTIIPYGYWGQGTQVTVSS”, the “polyreactivity (PSR sort gate)” value was “low polyreactivity”.
“QVQLVESGGGLVQAGGSLRLSCSASGRIFWDYAMGRYRQAPGKERELVASSSTDGSTYYADSVKGRFTISRDNANNTFYLQMNSLKPEDTAVYYCAARGYRGRMGYWGQGTQVTVSS”: the “polyreactivity (PSR sort gate)” value was “low polyreactivity”.
For “QVQLVESGGGLVQAGGSLRLSCSASGRISNAMGWYRQAPGKERELVATINSGASTNYADSVKGRFTISRDNAKNTVYLQMNSLKPEDTAVYYCNVAYVYGSFRRRPMGYLGQGTQVTVSS”, the “polyreactivity (PSR sort gate)” value is given as “high polyreactivity”.
The entry for “QVQLVESGGGLVQAGGSLRLSCSASGRTFGYNAMGWYRQAPGKEWELVAAIRTIGDSTYYADSVKGRFTISRDNAKNTVYLQMNSLKPEDTAVYYCAARNLRSRYDYWGQGTQVTVSS” is “high polyreactivity”; for “QVQLVESGGGLVQAGGSLRLSCSASGRTFSRYAMGWYSQAPGTERELVATISRRGGSTYYADSVKGRFTISRDNAKNTVYLQMNSLKPEDTAVYYCAARLYTQYYYWGQGTQVTVSS” it is “high polyreactivity”.
On to “QVQLVESGGGLVQAGGSLRLSCSASGSIFDAYAMGWYRQAPGKEREMVAAISKGGTRTYYADSVKGRFTISRDNAKNTVYLQMNSLIPEDTAFYYCNSYYRREPDDGDYDYWGQGTQVTVSS”, for which the “polyreactivity (PSR sort gate)” value is given as “high polyreactivity”.
With “QVQLVESGGGLVQAGGSLRLSCSASGSIFPHYAMGWYRQAPGKERELVAAISRSGTSTYYADSVKGRFTISRDNAKNTVYLQMNSLKPEDTAVYYCNAYQVYTRTYGYCGQGTQVTVSS” the entry was “high polyreactivity”.

(Values after the nanobody polyreactivity screen of Harvey et al. (2022).)
